Consider three molecules from patent US20150307617A1 (Genentech, published 2015).

For test [1], the target named is T1, cynomolgus monkey OX40 on T cells (cynomolgus monkey).
T1 construct: whole, on cells; also called cynomolgus OX40
Nature of the test: flow cytometry, Alexa Fluor 647-labeled antibody on cynomolgus monkey T cells, assay 2. As for the experimental part:
(§1) Cells were blocked with 10% human, cynomolgus monkey, rat or mouse serum respectively in PBS for 15 minutes at 4° C. and plated in a 96 well plate at the equivalent of 100 μL of whole blood per reaction.

For test [2], the target named is T1, cynomolgus monkey OX40 on T cells. Nature of the test: flow cytometry, Alexa Fluor 647-labeled antibody on cynomolgus monkey T cells, assay 1. As to the method: as §1
Test [3] has the same target. Nature of the test: flow cytometry, Alexa Fluor 647-labeled antibody on cynomolgus monkey T cells, average in molar units. As for the experimental part: as §1
For test [4] the target is unchanged. Nature of the test: flow cytometry, Alexa Fluor 647-labeled antibody on cynomolgus monkey T cells, average (± SD). As to the method:
as §1

Test [5] has as its target T2, rat OX40 on T cells (rat, UniProt P15725 20-271).
T2 construct: whole, on cells
T2 sequence (looked up): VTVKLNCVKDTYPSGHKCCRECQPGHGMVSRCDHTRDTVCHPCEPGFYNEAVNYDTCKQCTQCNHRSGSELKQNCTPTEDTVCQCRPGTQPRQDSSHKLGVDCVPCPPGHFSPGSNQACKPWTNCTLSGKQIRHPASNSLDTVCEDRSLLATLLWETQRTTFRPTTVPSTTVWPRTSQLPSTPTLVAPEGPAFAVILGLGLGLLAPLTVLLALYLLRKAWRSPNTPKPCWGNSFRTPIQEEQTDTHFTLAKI
Description: flow cytometry, Alexa Fluor 647-labeled antibody on peripheral blood T cells.

Test [6] has as its target T3, mouse OX40 on T cells (mouse, UniProt P47741 20-272).
T3 construct: whole, on cells
T3 sequence (looked up): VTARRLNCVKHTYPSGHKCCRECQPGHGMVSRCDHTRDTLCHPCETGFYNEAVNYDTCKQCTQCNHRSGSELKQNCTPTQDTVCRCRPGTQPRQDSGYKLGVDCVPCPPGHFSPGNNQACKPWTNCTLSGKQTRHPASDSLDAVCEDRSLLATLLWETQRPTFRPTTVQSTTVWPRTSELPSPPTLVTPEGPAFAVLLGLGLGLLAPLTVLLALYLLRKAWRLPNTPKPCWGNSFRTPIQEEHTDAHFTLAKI
The description is as above.

The target in test [7] is T4, Human OX40 (Sino Biological Inc) (human, UniProt P43489 29-216, limits assumed).
T4 construct: Bought soluble protein used as SPR analyte; also called huOX40
T4 sequence: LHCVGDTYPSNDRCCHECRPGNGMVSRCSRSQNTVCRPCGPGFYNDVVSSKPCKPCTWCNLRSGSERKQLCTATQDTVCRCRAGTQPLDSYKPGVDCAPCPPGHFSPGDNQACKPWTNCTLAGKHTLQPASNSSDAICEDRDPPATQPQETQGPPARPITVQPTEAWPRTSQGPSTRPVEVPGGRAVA
Nature of the test: SPR (Biacore), antibody captured via anti-human Fc, huOX40 analyte. As to the method:
The binding kinetics of the anti-OX40 antibodies was measured using surface plasmon resonance (SPR) on a Biacore 3000 instrument (GE Healthcare). Anti-human Fc (GE Healthcare) was immobilized on a CM5 sensor chip via amine-based coupling using manufacturer provided protocol. Anti-OX40 antibody was captured at a level of 300-400 resonance units (RU). Antibody binding was measured to human OX40 (Sino Biological Inc). Two-fold concentration series of huOX40 with a range of either 18.75 to 300 nM or 6.25 to 200 nM were used for the experiments. Sensorgrams for binding of OX40 were recorded using an injection time of 2 minutes with a flow rate of 30 μl/min, at a temperature of 25° C., and with a running buffer of 10 mM HEPES, pH 7.4, 150 mM NaCl, and 0.005% Tween 20. After injection, disassociation of the ligand from the antibody was monitored for 600 seconds in running buffer. The surface was regenerated between binding cycles with a 40 μl injection of 3 M Magnesium Chloride.
Variants were tested by Biacore as described above to evaluate binding kinetics and in co-stimulation assays to determine biological activity.

In test [8] the target is T5, human OX40 expressed on the cell surface (Hut78-hOX40 cells; human T cells) (human, UniProt P43489 29-277).
T5 construct: Hut78 T cell line stably transfected or retrovirally transduced with human OX40, or native OX40 on human peripheral blood T cells; also called huOX40; Hut78-OX40
T5 sequence: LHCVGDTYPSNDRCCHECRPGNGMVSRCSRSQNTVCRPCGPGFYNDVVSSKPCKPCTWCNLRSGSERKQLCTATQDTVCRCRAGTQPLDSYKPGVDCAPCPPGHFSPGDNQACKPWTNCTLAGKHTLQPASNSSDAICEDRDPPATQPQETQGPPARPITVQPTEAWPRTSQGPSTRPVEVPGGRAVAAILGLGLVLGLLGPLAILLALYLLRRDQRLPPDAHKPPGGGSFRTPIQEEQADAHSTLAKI
Nature of the test: flow cytometry titration of OX40L-flag on Hut78-hOX40 cells, 3-fold dilutions from 10 ug/mL, detected with anti-flag-Alexa Fluor 555. As for the experimental part:
(§2) After 30 min of incubation at 4 C, cells were washed twice in Wash Buffer (PBS/0.5% FBS/2 mM EDTA), followed by data acquisition on FACSCantoII flow cytometer (BD). Data were then analyzed by Flowjo program (TreeStar) and the mean fluorescent intensity (MFI) was captured. […] A titration of OX40L-flag binding was carried out in a similar fashion, except that OX40L-flag was titrated 3 fold down starting from 10 ug/mL.

In test [9] the target is T5, human OX40 expressed on the cell …. Description: flow cytometry competition on Hut78-hOX40 cells: OX40L-flag titrated first, then 200 ng/mL 1A7.gr.1-Alexa Fluor 647 added; readout is the MFI of 1A7.gr.1. As to the method: as §2
After 30 min of incubation at 4 C, cells were washed twice in Wash Buffer, followed by data acquisition on FACSCantoII flow cytometer (BD).

B1: 1A7.gr.1 (antibody, V domains shown)
VH: EVQLVQSGAEVKKPGASVKVSCKASGYTFTDSYMSWVRQAPGQGLEWIGDMYPDNGDSSYNQKFRERVTITRDTSTSTAYLELSSLRSEDTAVYYCVLAPRWYFSVWGQGTLVTVSS
VL: DIQMTQSPSSLSASVGDRVTITCRASQDISNYLNWYQQKPGKAPKLLIYYTSRLRSGVPSRFSGSGSGTDFTLTISSLQPEDFATYYCQQGHTLPPTFGQGTKVEIK
notes: human IgG1; 125I-labeled (radioligand assay) or Alexa Fluor 647-labeled (flow cytometry) in some assays; also called mab 1A7.gr.1; MOXR0916
In the case of B1, the EC50 in test [1] is 0.142 µg/mL; in [2], 0.143 µg/mL; in [3] it was 0.946 nM; in test [4] it was 0.142 µg/mL. For the same molecule, the binding result in test [5] and in test [6] was “no binding (tested: titrated from 9 µg/mL)” throughout.

B2: 1A7.gr.SGDS (antibody, V domains shown)
VH: EVQLVQSGAEVKKPGASVKVSCKASGYTFTDSYMSWVRQAPGQGLEWIGDMYPDSGDSSYNQKFRERVTITRDTSTSTAYLELSSLRSEDTAVYYCVLAPRWYFSVWGQGTLVTVSS
VL: DIQMTQSPSSLSASVGDRVTITCRASQDISNYLNWYQQKPGKAPKLLIYYTSRLRSGVPSRFSGSGSGTDFTLTISSLQPEDFATYYCQQGHTLPPTFGQGTKVEIK
As to B2, in test [7], the Kd was 0.993 nM, the “fold loss of binding affinity (against 1A7.gr.1)” value was 2 fold, the koff came to 0.000228 s⁻¹ and the kon is 230000 M⁻¹ s⁻¹.

B3: Human OX40L-flag (ligand, UniProt P23510 51-183, looked up)
chain: QVSHRYPRIQSIKVQFTEYKKEKGFILTSQKEDEIMKVQNNSVIINCDGFYLISLKGYFSQEVNISLHYQKDEEPLFQLKKVRSVNSLMVASLTYKDKVYLNVTTDNTSLDDFHVNGGELILIHQNPGEFCVL
notes: Made at Genentech; not shown: flag tag
On to B3, for which, in test [8], the “EC50 (read off the curve)” value is around 0.2 µg/mL. Also, the “IC50 (read off the curve)” value in [9] was around 0.2 µg/mL.
